Experimental data taken from paper PMC3942486, “The Ansamycin Antibiotic, Rifamycin SV, Inhibits BCL6 Transcriptional Repression and Forms a Complex with the BCL6-BTB/POZ Domain” (PLoS ONE, 2014).

B1: 2-naphthyl-SMRT peptide, labelled with BODIPY TMR (peptide)
chain: LVATVKEAGRSIXEIPR
modifications: 2-naphthylalanine in place of histidine1426; BODIPY TMR dye coupled via the amino-terminal cysteine
B2: 1-naphthyl-SMRT peptide, labelled with BODIPY TMR (peptide)
chain: LVATVKEAGRSIXEIPR
modifications: 1-naphthylalanine in place of histidine1426; BODIPY TMR dye coupled via the amino-terminal cysteine

Molecular target: BCL6-POZ domain (residues 7 to 128 of human BCL6, C8Q, C67R, C84N) (human, UniProt P41182 7-128, cysteine8 mutated to glutamine | cysteine67 mutated to arginine | cysteine84 …)
Assay: fluorescence polarisation; fixed concentration of BODIPY TMR-labelled SMRT peptide, increasing concentration of BCL6-POZ domain; PBS, 0.05% (v/v) Triton X-100, 0.1 mg/mL BSA; room temperature; triplicate; one-site binding (hyperbola) fit
Settings: both partners purified

Binder	Kd [µM]
B1	154
B2	11
